This note sets out measurements from the DeepSol protein solubility set.

This data set is described as follows: soluble on expression in E. coli; label from the status in PepcDB or PDB records.
For “MRNTLKAATLESKFPLLAVEADCIISKDADITAVFEVDLPELFTVTAAEYEAIHAAWAKAIKVLPNYTVVHKQDWFIREDYRSQTDKENLSFLSRSYEMHFNERPFLNHKCYLYLTKTTKERMRMQSSFSSLCRGFIIPKEVDKDTTAHFLDTVGQFARIVNDTGLVHLRRLVGDEITGTENKAGLVEKYFCLSMENTTALEDIELGDDGLRVGDKHVSVHTLSELDALPSKVGTDCRYERLSTDKSDCKLSFASPVGLLLSCNHLYNQYIFLDDSGENLQRFEKNARNMQSLSKYSRSNQINKEWIDLYLNDAHSFGLTSVRAHCNIIAWTDNPMEVKNMRNDVGSQIAMMECKPRHNTVDAATLYWAAIPGNGADFPAEESFYTFIEQALCFWVEETNYRSSVSPFGLKMSDRISGKPLHVDISDLPMKRGVTTNRNKFVLGGSGSGKSFFMNHLARQYYEQGTHVVLIDTGNSYQGLCSLIHQKSGGKDGIYFTYTDENPIAFNPFFTDDKVFDIEKRESIKTLILTLWKKDNEPATRSEEVALSNAVSLYIRRIKEDESIVPSFNTFYEFVKTDYRRILEEKEVREKDFDLAGFLNVLEPYYRGGEYDFLLNSDKQLDLLGKRFIVFEIDQIKDHPILFPVTTIIIMELFINKMRRLKGVRKMIIIEEAWL”, the “soluble on expression in E. coli” value is “not soluble”.
Take “MSLTAHRIGFLVWPGTKAMTLALAEEALRVAQRVHPEVVYELSFLQAELAEPAAVAGGWQLPGEPWTGRLEGLQKLFLLADEPPAAVAPALGSALKQLVRAGCSIGGLSAGVYPLAQLGLLDGYRAAVHWRWQDDFAERFPKVIATSHLFDWDRDRLTACGGMSVLDLLLAVLSRDHGAELAGAVSEELVVERIREGGERQRIPLQNRLGSSHPKLTQAVLLMEANIEEPLTTDEIAQHVCVSRRQLERIFKQYLNRVPSQYYLELRLNKARQMLMQTSKSIIQIGLSCGFSSGPHFSSAYRNFFGATPREDRNQRRSSSPFELSPVPAKGIITITTDPNSSSVDKLAAALEHHHHHH”: the “soluble on expression in E. coli” value is given as “soluble”.
On to “GSHMDKIKLLKAAFLQYCRKDLGHAQMVVDELFSSHSDLDSDSELDRAVTQISVDLMDDYPASDPRWAESVPEEAPGFSNTSLIILHQLEDKMKAHSFLMDFIHQVGLFGRLGSFPVRGTPMATRLLLCEHAEKLSAAIVLKNHHSRLSDLVNTAILIALNKREYEIPSNLTPADVFFREVSQVDTICECLLEHEEQVLRDAPMDSIEWAEVVINVNNILKDMLQAASHYRQNRNSLYRREESLEKEPEYVPWTATSGPGGIRTVIIRQHEIVLKVAYPQADSNLRNIVTEQLVALIDCFLDGYVSQLKSVDKSSNRERYDNLEMEYLQKRSDLLSPLLSLGQYLWAASLAEKYCDFDILVQMCEQTDNQSRLQRYMTQFADQNFSDFLFRWYLEKGKRGKLLSQPISQHGQLANFLQAHEHLSWLHEINSQELEKAHATLLGLANMETRYFAKKKTLLGLSKLAALASDFSEDMLQEKIEEMAEQERFLLHQETLPEQLLAEKQLNLSAMPVLTAPQLIGLYICEENRRANEYDFKKALDLLEYIDEEEDININDLKLEILCKALQRDNWSSSDGKDDPIEVSKDSIFVKILQKLLKDGIQLSEYLPEVKDLLQADQLGSLKSNPYFEFVLKANYEYYVQGQI”, for which the “soluble on expression in E. coli” value is recorded as “soluble”.
Regarding “MHHHHHHSSGVDLGTENLYFQSMKYILVTGGVISGIGKGIIASSVGTILKSCGLHVTSIKIDPYINIDAGTFSPYEHGEVFVLDDGGEVDLDLGNYERFLDIRLTKDNNLTTGKIYQYVINKERKGDYLGKTVQVVPHITDAIQEWVMRQALIPVDEDGLEPQVCVIELGGTVGDIESMPFIEAFRQFQFKVKRENFCNIHVSLVPQPSSTGEQKTKPTQNSVRELRGLGLSPDLVVCRCSNPLDTSVKEKISMFCHVEPEQVICVHDVSSIYRVPLLLEEQGVVDYFLRRLDLP”, the “soluble on expression in E. coli” value was “soluble”.
For the sequence “EMVLLPAPQIPLIMKIMKNHTPTWLPGVPTLYEKIVAEATAKGVEIKGIRNSFSGASTLPVRTVEDWENLTGGLLVEGYGLTETSPVLCGNPMNGNRRPGYIGVPFPDTEIRIANPDNLDETMPDGEAGEVLARGPQIFQGYLNKPEATAATFHGDWFRTGDMGVMEEDGFIRLVSRIKEIIITGGFNVYPAEVEEALIAHPDVDDAAVVGRPRKDGSEDVVACIVLKDGAALDPEGLKTHCRKLLTRYKVPRTFYHFEALNKDQLGKVRRREVQQTLLERLGEK”, the “soluble on expression in E. coli” value is listed as “not soluble”.
